Test system: NaPi2b expressing tumors
Experiment: Phase 1b study of XMT-1536: duration on study and reason for discontinuation
Format: in vivo, human
Description: The study presented herein is an open label, multi-center Phase 1b study of XMT-1536 administered as an intravenous infusion once every three or four weeks. The dose escalation (DES) part of the study will establish the maximum tolerated dose (MTD) or recommended Phase 2 dose (RP2D) for XMT-1536 in patients with a number of tumor types likely to express NaPi2b, with a focus on patients with platinum-resistant ovarian cancer and non-squamous non-small cell lung cancer (NSCLC). […] The RP2D may differ from the MTD and may take into account tolerability, pharmacokinetic and pharmacodynamic measures, and efficacy of XMT-1536 based on RECIST 1.1. After the first cycle, patients may continue to receive XMT-1536 until disease progression provided the drug is well-tolerated and patients continue to derive clinical benefit in the opinion of the Investigator. The DES segment of the study utilized an accelerated titration design. The first 3-week cycle of treatment constitutes the dose limiting toxicity (DLT) evaluation period. For the first two dose levels, a minimum of 1 patient was treated at each dose level. If this patient experiences a treatment-emergent adverse event of Grade 2 or higher, 2 additional patients will be added at this dose level, and the study will subsequently follow a 3+3 design, as described below. […] Starting with Dose Level 3, the study will follow a standard 3+3 design, with 3 patients enrolled initially at each dose level. […] However, in the event of 1 DLT, 3 additional patients will be enrolled at the same dose level. Any dose level with 2 or more DLTs will be considered to exceed the MTD and subsequent patients will be enrolled at lower dose level(s). After the first cycle, patients may continue to receive XMT-1536 until disease progression if the drug is well-tolerated and patients continue to derive clinical benefit in the opinion of the Investigator.
After an August 2018 protocol amendment, each cycle will be 4-week (28 day) dose cycle. The first two, 4-week cycles of treatment (56 days) constitutes the dose limiting toxicity (DLT) evaluation period. Beginning with this amendment, up to 10 patients will be enrolled for evaluation at 20.0 mg/m^2 under the new 4-week cycle dose regimen. If that dose is cleared by the SRC, subsequent dose groups will follow a modified 3+3 design. Three patients will be enrolled initially and if toxicity issues arise, the SRC will review all pertinent data and may decide to add more patients to fully evaluate a dose in question and/or lower the dose. […] The observation period for DLTs is 56 days, between Day 1 through the end of Cycle 2 which includes the pre-dose assessments before receiving the Cycle 3 dose. A maximum of ten patients will be enrolled per dose level prior to the SRM. that will be conducted no later than 5 days after at least the sixth patient dosed in each level has completed Cycle 2, Day 28 evaluations. The data available for the patients dosed in all prior will be factored into the data review for each applicable dose escalation SRM. Any dose level with 2 or more DLTs occurring in 6 or fewer treated patients will be considered to exceed the MTD and subsequent patients will be enrolled at lower dose level(s). After the second cycle, patients may continue to receive XMT-1536 until disease progression if the drug is well-tolerated and patients continue to derive clinical benefit in the opinion of the Investigator. After completion of DES, the EXP segment of the study will be opened.
Treatment will continue indefinitely unless one of the following occurs: disease progression, inter-current illness that prevents further administration of treatment, unacceptable adverse events or pregnancy, patient non-compliance with the protocol, patient withdraws consent for participation from the study, and/or general or specific changes in the patient's condition render the patient unacceptable for further treatment in the judgment of the Investigator.

[1] = doses of 20 mg/m^2 and higher (n=18)

B1: XMT-1536: about 10-15 molecules of auristatin F-hydroxypropyl amide conjugated to a cysteine moiety of NaPi2b monoclonal antibody XMT-1535 via a PHF scaffold (conjugate, chains of the INN, looked up)
VH: QVQLVQSGAEVVKPGASVKMSCKASGYTFTGYNIHWVKQAPGQGLEWIGAIYPGNGDTSYKQKFRGRATLTADTSTSTVYMELSSLRSEDSAVYYCARGETARATFAYWGQGTLVTVSS
VL: DIQMTQSPSSLSASVGDRVTITCSASQDIGNFLNWYQQKPGKTVKVLIYYTSSLYSGVPSRFSGSGSGTDYTLTISSLQPEDFATYYCQQYSKLPLTFGQGTKLELK
modifications: auristatin F-hydroxypropyl amide via PHF scaffold
notes: about 10-15 molecules of auristatin F-hydroxypropyl amide conjugated to a cysteine moiety of NaPi2b monoclonal antibody XMT-1535 via a PHF scaffold
- Treatment duration >16 weeks (All NSCLC, N 3): 33%
- Treatment duration >16 weeks, patients (All NSCLC, N 3): 1
- Treatment duration >16 weeks (All Ovarian Cancer (OC), N 19): 42%
- Treatment duration >16 weeks, patients (All Ovarian Cancer (OC), N 19): 8
- discontinued for Progressive Disease per RECIST, patients (DL1 3 mg/m^2, n = 1): 1
- discontinued for Progressive Disease per RECIST, patients (DL2 6 mg/m^2, n = 1): 1
- discontinued for Clinical Progression, patients (DL3 12 mg/m^2, n = 7): 4
- discontinued for Progressive Disease per RECIST, patients (DL3 12 mg/m^2, n = 7): 3
- discontinued for Clinical Progression, patients (DL4 & 4A 20 mg/m^2, n = 13): 2
- discontinued for Progressive Disease per RECIST, patients (DL4 & 4A 20 mg/m^2, n = 13): 7
- discontinued for Clinical Progression, patients (DL5 & 5A 30 mg/m^2, n = 11): 3
- discontinued for Progressive Disease per RECIST, patients (DL5 & 5A 30 mg/m^2, n = 11): 6
- Treatment duration >16 weeks (NSCLC ≥ 20 mg/m^2, N 2): 50%
- Treatment duration >16 weeks, patients (NSCLC ≥ 20 mg/m^2, N 2): 1
- Treatment duration >16 weeks (OC + NSCLC ≥ 20 mg/m^2, N 18): 56%
- Treatment duration >16 weeks, patients (OC + NSCLC ≥ 20 mg/m^2, N 18): 10
- Treatment duration >16 weeks (OC ≥ 20 mg/m^2, N 16): 57%
- Treatment duration >16 weeks, patients (OC ≥ 20 mg/m^2, N 16): 9
- Treatment duration >16 weeks (OC ≥ 30 mg/m^2, N 7): 43%
- Treatment duration >16 weeks, patients (OC ≥ 30 mg/m^2, N 7): 3
- discontinued for Clinical Progression (Total, n = 34): (26%)
- discontinued for Clinical Progression, patients (Total, n = 34): 9
- discontinued for Progressive Disease per RECIST (Total, n = 34): (53%)
- discontinued for Progressive Disease per RECIST, patients (Total, n = 34): 18
- treatment duration of >16 weeks [1]: 50%
- treatment duration of >16 weeks, patients [1]: 9

Reference: patent US11407825B2, “NaPi2b-targeted polymer antibody-drug conjugates and methods of use thereof” (Mersana Therapeutics, Inc., priority 2018, dated 2022)
